Results as given in the supplement of paper PMC7125110.
± gives the standard error. Fewer inactive variants are shown than the library holds.

B1: glmS ribozyme (parent)
chain: AUAAAAGCGCCAGAACUACAGAAAUGUAGUUGACGAGGAGGAGGUUUAUCGAAUUUUCGGCGGAUGCCUCCAAA

How the values were obtained:
Details in all cases: with glucosamine-6-phosphate
glucosamine-6-phosphate [1] = variants of: B1; experiment: self-cleavage kobs at 40 uM GlcN6P; higher = faster cleavage; RNA array
Outline: (§1)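 Weighted Michaelis–Menten fits across concentrations supplied kcat and KM, based on kobs from one- or two-exponential decay fits to normalised per-tile medians. The data came from barcoded ribozyme variants transcribed in situ by E. coli RNA polymerase on sequenced MiSeq chips and tracked at 37 °C by a hybridised Cy3 probe. Glucosamine-6-phosphate (40 μM to 10 mM) in HEPES/KCl/Mg(OAc)2 buffer was flowed in.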

glucosamine-6-phosphate [2] = variants of: B1; experiment: self-cleavage kobs at 640 uM GlcN6P; higher = faster cleavage; RNA array
Outline: as §1

glucosamine-6-phosphate [3] = variants of: B1; experiment: self-cleavage kobs at 2500 uM GlcN6P; higher = faster cleavage; RNA array
Outline: as §1

glucosamine-6-phosphate [4] = variants of: B1; experiment: self-cleavage kobs at 10000 uM GlcN6P; higher = faster cleavage; RNA array
Outline: as §1

glucosamine-6-phosphate [5] = variants of: B1; experiment: self-cleavage kobs at 160 uM GlcN6P; higher = faster cleavage; RNA array
Outline: as §1

Variant	self-cleavage kobs at 40 uM GlcN6P (glucosamine-6-phosphate [1]) [s⁻¹]	self-cleavage kobs at 640 uM GlcN6P (glucosamine-6-phosphate [2]) [s⁻¹]	self-cleavage kobs at 2500 uM GlcN6P (glucosamine-6-phosphate [3]) [s⁻¹]	self-cleavage kobs at 10000 uM GlcN6P (glucosamine-6-phosphate [4]) [s⁻¹]	self-cleavage kobs at 160 uM GlcN6P (glucosamine-6-phosphate [5]) [s⁻¹]
AUAAAAGCGCCAGAACUACAGAAAUGUAGUUGACGAGGAGGAGGUUUAUCGAAUUUUUGACGGAUGCCUCCAAA [C58U G60A]	< 1e-05	< 1e-05	< 1e-05	< 1e-05	–
AUAAAAGCGCCUGAACUACAGAAAUGUAGUUGACGAGGAGGAGGUUUAUCGAAAUUUCGGCGGAUGCCUCCAAA [A12U U54A]	0.00273 ± 0.00049	0.0221 ± 0.0044	0.0233 ± 0.0078	0.121 ± 0.059	0.00304 ± 0.00084
AUAAAAGCGCCAGAACUACAGAAAUGUAGUUGACGAGGAGGAUGUUUAUCGAAUUUUCCGCGGAUGCCUCCAAA [G43U G59C]	< 1e-05	< 1e-05	< 1e-05	< 1e-05	< 1e-05
AUAAAAGCGCCAGAACUACAGAAAUGUAGUUGACGAGGAGGAGGUUAAUCGAAUGUUCGGCGGAUGCCUCCAAA [U47A U55G]	0.000473 ± 8.1e-05	0.00869 ± 0.0018	0.0105 ± 0.0022	0.0152 ± 0.0031	0.000805 ± 0.00018
AUAAAUGCGCCAGAACUACAGAAAUGUAGUUGACGAGGUAGAGGUUUAUCGAAUUUUCGGCGGAUGCCUCCAAA [A6U A39U G40A]	< 1e-05	–	–	–	–
AUAAAAGCGCCAGAACUACAGAAAUGUAGUUGACGAGGAGGAGGUUUAUCGACUUUUCGGCGUAUGGCGCCAAA [A53C G63U C67G U69G]	< 1e-05	–	–	–	–
AUAAAAUCGCCAGAACUACAGAAAUGUAGUUGGCGAGGAGGAGGUUUAUCGAAUUUUCGGCGGAUGCCUCCAAA [G7U A33G]	< 1e-05	< 1e-05	< 1e-05	–	< 1e-05
AUAAAAGCGCCAGAGCUACAGAAAUGUAGUUGACCAGGAGGAGGUUUAUCGAAUUUUCGGCGGAUGCCUCCAAA [A15G G35C]	< 1e-05	< 1e-05	< 1e-05	–	–
AUAAAAGCGCCAGAACUACAGAAAUGUAGUUGACGAGGAGGAGGUUUAUUAAAUUUUCGGCGGAUGCCUCCAAA [C50U G51A]	< 1e-05	< 1e-05	< 1e-05	< 1e-05	–
AUAAAAGGGCCAGAACUACAGAAAUGUAGUUGACGAGGAGUAGGUUUAUCGAAUUUUCGGCGGAUGCCUCUAAA [C8G G41U C71U]	< 1e-05	–	–	< 1e-05	–
AUAAAAGAGCCAGAACUACAGAAAUGUAGUUGACGAGGAGGAGGUUUAUCGAAUUUUGGGCGGAUGCCUCCAAA [C8A C58G]	< 1e-05	< 1e-05	–	–	< 1e-05
